In US12618828B2, “Probe and method for detecting membrane-associated molecules in living cells” (priority 2021, dated 2026):

Columns and labels:
Format in all cases: cell-based
activated form of Gαi1 = biological target: T1, activated form of Gαi1 (Homo sapiens, UniProt P63096); test: Polarization microscopy of probe in HEK293 cells, Gαi1 activated through the α2-adrenergic receptor by norepinephrine; conditions: HEK293 cells cotransfected with Gαi1, Gβ1, Gγ2 and α2-adrenergic receptor; 10 μM norepinephrine; excitation polarization resolved single-photon confocal microscopy
T1 construct: expressed in transfected cells; host or cells: HEK293
Protocol: (§1) Prior to microscopy observations, mammalian cells (HEK293) were cultured at 37° C. under an atmosphere of 95% air, 5% CO2, in Dulbecco's modified Eagle's medium with Glutamax I and high glucose (Life Technologies), supplemented with 10% fetal bovine serum. Cells were plated on 8-chamber microscopy slides (p-Slides, Ibidi GmbH, Germany). Transfections were carried out using 0.2 μg of plasmid DNA and Lipofectamine 2000 (Life Technologies), according to the protocol of the manufacturer. In cotransfections, 0.2 μg of each of the plasmids were used. Microscopy experiments were carried out 48 h after transfection. […]
(§2) In excitation polarization resolved single-photon laser scanning confocal microscopy, the cells (in the multi-well cover slip) were observed using a single-photon laser scanning confocal microscope Olympus FV1200, modified for excitation-polarization resolved microscopy. […] Fluorescence of wavelengths in the range of 510-610 nm was separated from the excitation light by a long-pass dichroic mirror (DM405/488, Olympus, Japan), diffractive grating, and an adjustable slit, and detected by a photomultiplier. […]
(§3) The resulting images were deconvolved and quantitatively analyzed by following published procedures (Bondar A & al., Communications Biology. 2021 Feb. 12; 4(1):1-2.) that rely on publicly available software tools. […]

[1] = biological target: T2, activated form of the G-protein Gαi1 (Gαi1(Q204L)) (Homo sapiens, UniProt P63096, Q204L); test: Polarization microscopy of probe in HEK293 cells, with or without cotransfected constitutively activated Gαi1(Q204L); conditions: cotransfection of Gαi1(Q204L) plasmid, excitation polarization resolved single-photon laser scanning confocal microscopy
T2 construct: expressed in transfected cells; host or cells: HEK293
Source text: A protein (SEQ ID NO:5) that includes as an anchoring moiety a fragment of the protein h-Ras, a flexible peptide linker (amino acid sequence GSGGSGG (SEQ ID NO:1)), a monomeric enhanced green fluorescent protein (meGFP) as a fluorescent moiety, and an affinity binding peptide KB1753 known to bind the activated form of the G-protein Gαi1 (Johnston C A & al., Structure. 2005 Jul. 1; 13(7):1069-80), was encoded into a DNA sequence (SEQ ID NO:6) and cloned into a mammalian expression vector (pcDNA3.1(+)) under the control of the cytomegalovirus (CMV) promoter. The resulting DNA encoding the probe of invention was transfected into HEK293 cells either alone, or along with DNA encoding the target protein of the probe.
Prior to microscopy observations, mammalian cells (HEK293) were cultured at 37° C. under an atmosphere of 95% air, 5% CO2, in Dulbecco's modified Eagle's medium with Glutamax I and high glucose (Life Technologies), supplemented with 10% fetal bovine serum. […]
The cells were observed by excitation polarization resolved single-photon laser scanning confocal microscopy, by excitation polarization resolved two-photon laser scanning microscopy, by excitation polarization resolved single-photon wide-field fluorescence microscopy, and by fluorescence polarization resolved single-photon laser scanning confocal microscopy.
as §2, §3

GβGγ dimer = biological target: T3, GβGγ dimer (Homo sapiens, UniProt P59768+P62873); test: Polarization microscopy of probe in HEK293 cells, with or without cotransfected GβGγ dimer; conditions: cotransfection of plasmids encoding the, excitation polarization resolved single-photon confocal microscopy
T3 construct: expressed in transfected cells; host or cells: HEK293
Protocol: as §1, §2, §3

T2 sequence (P63096 whole entry Q204L): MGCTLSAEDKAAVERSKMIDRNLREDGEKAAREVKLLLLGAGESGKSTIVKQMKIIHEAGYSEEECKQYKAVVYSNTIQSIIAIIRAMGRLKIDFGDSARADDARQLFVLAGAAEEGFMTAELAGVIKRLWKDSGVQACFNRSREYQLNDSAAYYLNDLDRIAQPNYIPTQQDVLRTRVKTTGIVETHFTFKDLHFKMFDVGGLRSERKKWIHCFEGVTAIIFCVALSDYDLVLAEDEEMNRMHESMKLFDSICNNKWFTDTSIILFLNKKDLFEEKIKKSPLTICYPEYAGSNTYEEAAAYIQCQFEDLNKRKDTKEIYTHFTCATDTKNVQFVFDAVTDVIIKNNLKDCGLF
T1 sequence (P63096 whole entry): as the sequence (P63096 whole entry Q204L) above, with L204Q counted along it
T3 sequence (P62873 2-340 limits assumed): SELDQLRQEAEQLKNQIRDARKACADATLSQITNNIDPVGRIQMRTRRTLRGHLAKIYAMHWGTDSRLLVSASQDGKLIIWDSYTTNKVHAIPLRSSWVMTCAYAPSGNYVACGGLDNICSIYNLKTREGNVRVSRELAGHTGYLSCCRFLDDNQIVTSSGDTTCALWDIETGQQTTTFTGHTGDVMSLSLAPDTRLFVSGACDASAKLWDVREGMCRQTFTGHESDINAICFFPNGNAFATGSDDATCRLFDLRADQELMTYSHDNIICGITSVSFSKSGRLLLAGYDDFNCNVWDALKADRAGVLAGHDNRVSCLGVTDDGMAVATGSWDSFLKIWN
T3 sequence (P59768 2-68 limits assumed): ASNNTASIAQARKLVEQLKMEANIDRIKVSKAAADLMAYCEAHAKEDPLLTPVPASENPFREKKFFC

Row | Molecule | linear dichroism of the fluorescent moiety of the probe in presence of activated Gαi1 compared with absence (activated form of Gαi1) | linear dichroism of the fluorescent moiety of the probe in presence of its target molecule compared with absence [1] | linear dichroism of the fluorescent moiety of the probe in presence of its target molecule compared with absence (GβGγ dimer)
1 | KB1753-HALO-GSGGSGG-hRas (protein, HALO labelled with JF-549; KB1753-HALO-GSGGSGG-hRas, Protein probe: hRas fragment anchor, GSGGSGG linker, HALO fluorogenic protein (labelled with JF-549), peptide KB1753) MSSRGYYHGIWVGEEGRLSRAEIGTGFPFDPHYVEVLGERMHYVDVGPRDGTPVLFLHGNPTSSYVWRNIIPHVAPTHRCIAPDLIGMGKSDKPDLGYFFDDHVRFMDAFIEALGLEEVVLVIHDWGSALGFHWAKRNPERVKGIAFMEFIRPIPTWDEWPEFARETFQAFRTTDVGRKLIIDQNVFIEGTLPMGVVRPLTEVEMDHYREPFLNPVDREPLWRFPNELPIAGEPANIVALVEEYMDWLHQSPVPKLLFWGTPGVLIPPAEAARLAKSLPNCKAVDIGPGLNLLQEDNPDLIGSEIARWLSTLEISGGSGGSGGCMSCKCVLS | statistically significantly lower | statistically significantly lower | 
2 | KB1753-SNAP-GSGGSGG-hRas (protein, SNAP labelled with SNAP Cell 430; KB1753-SNAP-GSGGSGG-hRas, Protein probe: hRas fragment anchor, GSGGSGG linker, SNAP fluorogenic protein (labelled with SNAP Cell 430), peptide KB1753) MSSRGYYHGIWVGEEGRLSRDKDCEMKRTTLDSPLGKLELSGCEQGLHRIIFLGKGTSAADAVEVPAPAAVLGGPEPLMQATAWLNAYFHQPEAIEEFPVPALHHPVFQQESFTRQVLWKLLKVVKFGEVISYSHLAALAGNPAATAAVKTALSGNPVPILIPCHRVVQGDLDVGGYEGGLAVKEWLLAHEGHRLGKPGLGSGGSGGCMSCKCVLS |  | statistically significantly higher | 
3 | KB1753-mScarlet-GSGGSGG-hRas (protein, KB1753-mScarlet-GSGGSGG-hRas, Protein probe: hRas fragment anchor, GSGGSGG linker, mScarlet, peptide KB1753) MSSRGYYHGIWVGEEGRLSRVSKGEAVIKEFMRFKVHMEGSMNGHEFEIEGEGEGRPYEGTQTAKLKVTKGGPLPFSWDILSPQFMYGSRAFTKHPADIPDYYKQSFPEGFKWERVMNFEDGGAVTVTQDTSLEDGTLIYKVKLRGTNFPPDGPVMQKKTMGWEASTERLYPEDGVLKGDIKMALRLKDGGRYLADFKTTYKAKKPVQMPGAYNVDRKLDITSHNEDYTVVEQYERSEGRHSTGGMDELYKGSGGSGGCMSCKCVLS | statistically significantly higher | statistically significantly higher | 
4 | GAP43-SSGSSGTG-HALO-GRK2ct (protein, HALO labelled with JF-549; GAP43-SSGSSGTG-HALO-GRK2ct, Protein probe: GAP43 fragment anchor, SSGSSGTG linker, HALO (labelled with JF-549), GRK2 fragment with PH domain) MLCCMRRTKQVEKNDEDQNSSGSSGTGAEIGTGFPFDPHYVEVLGERMHYVDVGPRDGTPVLFLHGNPTSSYVWRNIIPHVAPTHRCIAPDLIGMGKSDKPDLGYFFDDHVRFMDAFIEALGLEEVVLVIHDWGSALGFHWAKRNPERVKGIAFMEFIRPIPTWDEWPEFARETFQAFRTTDVGRKLIIDQNVFIEGTLPMGVVRPLTEVEMDHYREPFLNPVDREPLWRFPNELPIAGEPANIVALVEEYMDWLHQSPVPKLLFWGTPGVLIPPAEAARLAKSLPNCKAVDIGPGLNLLQEDNPDLIGSEIARWLSTLEISGGSSRNFPLVISERWQQEVAETVYEAVNADTDKIEARKRAKNKQLGHEEDYALGRDCIVHGYMLKLGNPFLTQWQRRYFYLFPNRLEWRGEGESRQSLLTMEQIVSVEETQIKDKKCILLRIKGGKQFVLQCESDPEFVQWKKELTETFMEAQRLLRRAPKFLNKSRSAVVELSKPPLCHRNSNGLGSRG |  |  | statistically significantly higher
